What was measured:
人IL-12 (Bio IL-12) = biological target: T1, 人IL-12 (Bio IL-12) (human, UniProt P29459 23-219; P29460 23-328, biotin-labelled (Bio IL-12); sites not stated); experiment: ELISA: Bio IL-12 at 1 μg/ml captured on Neutravidin, antibody in serial dilution
T1 construct: the p35 subunit is supplied from general knowledge
T1 sequence (looked up) 1: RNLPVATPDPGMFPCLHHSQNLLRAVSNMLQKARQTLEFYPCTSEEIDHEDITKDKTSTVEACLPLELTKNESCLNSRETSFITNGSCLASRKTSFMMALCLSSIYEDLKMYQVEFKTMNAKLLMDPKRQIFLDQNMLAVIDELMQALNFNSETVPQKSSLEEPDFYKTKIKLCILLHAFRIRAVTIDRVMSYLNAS
T1 sequence (looked up) 2: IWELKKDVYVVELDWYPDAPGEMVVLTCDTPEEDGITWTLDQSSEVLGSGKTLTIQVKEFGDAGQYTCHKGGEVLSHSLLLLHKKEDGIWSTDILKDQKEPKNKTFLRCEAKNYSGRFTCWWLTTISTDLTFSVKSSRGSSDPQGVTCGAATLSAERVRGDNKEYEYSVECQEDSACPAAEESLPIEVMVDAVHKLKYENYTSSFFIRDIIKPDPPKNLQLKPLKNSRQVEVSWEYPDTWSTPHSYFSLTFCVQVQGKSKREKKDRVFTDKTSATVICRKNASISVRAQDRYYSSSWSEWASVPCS

人IL-23 (Bio IL-23) = biological target: T2, 人IL-23 (Bio IL-23) (human, UniProt Q9NPF7 20-189; P29460 23-328, biotin-labelled (Bio IL-23); sites not stated); experiment: ELISA: Bio IL-23 at 1 μg/ml captured on Neutravidin, antibody in serial dilution
T2 construct: also called hIL-23
T2 sequence (looked up) 1: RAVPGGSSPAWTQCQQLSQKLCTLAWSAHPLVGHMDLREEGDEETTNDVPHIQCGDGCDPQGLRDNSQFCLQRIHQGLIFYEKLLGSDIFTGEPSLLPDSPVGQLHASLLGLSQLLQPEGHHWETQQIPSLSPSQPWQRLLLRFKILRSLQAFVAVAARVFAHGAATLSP
T2 sequence (looked up) 2: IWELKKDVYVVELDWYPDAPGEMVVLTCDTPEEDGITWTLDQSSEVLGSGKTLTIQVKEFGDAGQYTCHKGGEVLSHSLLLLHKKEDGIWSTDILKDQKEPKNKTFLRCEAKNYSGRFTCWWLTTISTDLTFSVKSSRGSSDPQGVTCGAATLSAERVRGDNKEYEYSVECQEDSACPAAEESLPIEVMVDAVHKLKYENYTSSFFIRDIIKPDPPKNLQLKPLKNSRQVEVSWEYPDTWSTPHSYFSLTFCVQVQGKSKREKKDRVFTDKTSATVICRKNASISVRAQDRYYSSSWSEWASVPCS

- binding result (人IL-12 (Bio IL-12)): no binding
- binding result (人IL-23 (Bio IL-23)): binds
B1: 抗人IL-23P19单克隆抗体(第一抗体) (antibody, V domains shown)
VH: QEQLEESGGGLVKPGGTLTLTCKASGFDFTTYNYMCWVRQAPGKGLEWIACIYTTKTNTWYASWAKGRFTISKTSSTTVTLQMTSLTAADTATYFCARGGWDNLSLWGPGTLVTVSS
VL: AALTQTPASVSAAVGGTVTIKCQSSQSVYSNNYLAWYQQKPGQPPKVLIYAASTLASGVPSRFSGSGSGTQFTLTISGVQCDDAATYYCLGGYDDDAVFGGGTEVVVKG
notes: also called 抗人IL-23第一抗体; 包被抗体

— patent publication CN116514981A (JIANGSU QUANXIN BIOMEDICAL CO LTD, dated 2023)
